Reference: paper PMC11142304

What was measured:
[1] = target: ADP-ribosylated ubiquitin (ADPR-Ub) (UniProt P0CG48); assay: ITC
[2] = target: LnaB (recombinant, ITC and AUC) (L. pneumophila); assay: ITC

Substance | Kd [1] | stoichiometry N [2]
MavL_N322A | 5.96 µM | –
Actin (Sangon Biotech, A001041) (from UniProt P60709 1-375) (natural protein) | – | 0.84
